Test results from patent publication US6794159.

B1: Aeromonas aminopeptidase (protein)
chain: MPPITQQATVTAWLPQVDASQITGTISSLESFTNRFYTTTSGAQASDWIASEWQALSASLPNASVKQVSHSGYNQKSVVMTITGSEAPDEWIVIGGHLDSTIGSHTNEQSVAPGADDDASGIAAVTEVIRVLSENNFQPKRSIAFMAYAAEEVGLRGSQDLANQYKSEGKNVVSALQLDMTNYKGSAQDVVFITDYTDSNFTQYLTQLMDEYLPSLTYGFDTCGYACSDHASWHNAGYPAAMPFESKFNDYNPRIHTTQDTLANSDPTGSHAKKFTQLGLAYAIEMGSATGDTPTPGNQ
B2: Cu2+-substituted Aeromonas aminopeptidase (protein)
chain: B1 chain

Molecular target: Alanyl-human growth hormone

Row | Protein | % cleavage (batch mode, 4-6° C., 16 hrs) [%] | % cleavage (batch mode, 4-6° C., 54 hrs) [%] | % cleavage (batch mode, 4-6° C., 89 hrs) [%] | % cleavage (batch mode, ambient, 16 hrs) [%] | % cleavage (batch mode, ambient, 54 hrs) [%] | % cleavage (batch mode, ambient, 89 hrs) [%] | % cleavage (recirculation, 28° C., 2.92 hrs, 1.06 passes, RP-HPLC) [%] | % cleavage (recirculation, 28° C., 5.73 hrs, 2.08 passes, tryptic map) [%] | % cleavage (recirculation, 28° C., 15.57 hrs, 5.66 passes, tryptic map) [%] | % cleavage (recirculation, 28° C., 17.73 hrs, 6.45 passes, tryptic map) [%] | % cleavage (recirculation, 28° C., 20.4 hrs, 7.42 passes, tryptic map) [%] | % cleavage (recirculation, 28° C., 23.4 hrs, 8.8 passes, tryptic map) [%] | % cleavage (recirculation, 28° C., 24.4 hrs, 8.87 passes, tryptic map) [%] | % cleavage (recirculation, 28° C., 39.7 hrs, 14.44 passes, tryptic map) [%] | removal of Ala from Ala-hGH by AAP in free solution (Ala-hGH 3 mg/ml; AAP 2.0, 3.0, 4.0 units/ml; room temperature; ES/MS) | rate of Ala-hGH cleavage, batch and recirculating column modes, compared with Zn-AAP (RP-HPLC)
1 | B1 | 48 | 65 | 75 | 82 | > 97 | > 97 | > 93 | > 96.1 | > 98.6 | > 98.6 | > 98.6 | > 98.8 | > 98.8 | > 99.2 | Most of the reactions for the three highest concentrations of AAP were complete by 6 hours | 
2 | B2 |  |  |  |  |  |  |  |  |  |  |  |  |  |  |  | Cu^2+-substituted AAP was the most active against Ala-hGH
